Here are results for 94 variants from the supplement of paper PMC10567573.

B1: SOAT1 (parent)
chain: GVLILFLTFFAFLHCWLNAFAEML
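Note: lentivirally expressed fusions sorted by FACS into six bins by GFP to DsRed ratio, PSI derived from sequencing read proportions per bin multiplied by bin number.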

The variants in this series derive from B1. Description: protein stability index of a GFP-peptide fusion (GPS, HEK-293T) (PSI 1-6); higher = more stable. The note with it: c terminus: a fixed tail appended.
With GVLILFLTFFAWLHCWLNAFAEML [F12W], the protein stability index was found to be 2.92.
As to GVLILFLTFFAMLHCWLNAFAEML [F12M], the protein stability index was 2.87.
For GVLILFLTFFADLHCWLNAFAEML [F12D] the value was 2.27; for GVLILFLTFFAALHCWLNAFAEML [F12A], 2.65.
The value for GVLILFLTFFAKLHCWLNAFAEML [F12K] was 3.54.
The value for GVLILFLTFFASLHCWLNAFAEML [F12S] was 3.35; that for GVLILFLTFFACLHCWLNAFAEML [F12C] was 3.26; that for GVLILFLTFFALLHCWLNAFAEML [F12L] was 2.09.
On to GVLILFLTFFAYLHCWLNAFAEML [F12Y], for which the protein stability index came to 2.75.
The value for GVLILFLTFFAGLHCWLNAFAEML [F12G] was 2.81; that for GVLILFLTFFAHLHCWLNAFAEML [F12H] was 2.43.
Consider GVLILFLTFFANLHCWLNAFAEML [F12N], for which the protein stability index is 3.
As for GVLILFLTFFARLHCWLNAFAEML [F12R], the protein stability index stood at 2.64.
For GVLILFLTFFATLHCWLNAFAEML [F12T] the value was 2.42; for GVLILFLTFFAILHCWLNAFAEML [F12I], 2.6; for GVLILFLTFFAELHCWLNAFAEML [F12E], 3.48.
The value for GVLILFLTFFAVLHCWLNAFAEML [F12V] was 1.84; that for GVLILFLTFFAQLHCWLNAFAEML [F12Q] was 2.71.
Consider GVLILFGTFFAFLHCWLNAFAEML [L7G], for which the protein stability index stood at 2.95.
For GVLILFVTFFAFLHCWLNAFAEML [L7V] the value was 2.56.
The value for GVLILFMTFFAFLHCWLNAFAEML [L7M] was 2.38.
The value for GVLILFQTFFAFLHCWLNAFAEML [L7Q] was 2.92.
As for GVLILFRTFFAFLHCWLNAFAEML [L7R], the protein stability index is 3.36.
GVLILFETFFAFLHCWLNAFAEML [L7E]: the protein stability index is 3.09.
For GVLILFCTFFAFLHCWLNAFAEML [L7C] the value was 1.91.
Take GVLILFDTFFAFLHCWLNAFAEML [L7D]: the protein stability index turned out to be 2.11.
In the case of GVLILFNTFFAFLHCWLNAFAEML [L7N], the protein stability index came out at 3.81.
The value for GVLILFWTFFAFLHCWLNAFAEML [L7W] was 4.58; that for GVLILFPTFFAFLHCWLNAFAEML [L7P] was 2.68.
The value for GVLILFFTFFAFLHCWLNAFAEML [L7F] was 1.85; that for GVLILFKTFFAFLHCWLNAFAEML [L7K] was 3.37; that for GVLILFITFFAFLHCWLNAFAEML [L7I] was 2.4.
The value for GVLILFLPFFAFLHCWLNAFAEML [T8P] was 3.34; that for GVLILFLEFFAFLHCWLNAFAEML [T8E] was 2.8.
With GVLILFLCFFAFLHCWLNAFAEML [T8C], the protein stability index stood at 1.01.
The value for GVLILFLLFFAFLHCWLNAFAEML [T8L] was 2.04; that for GVLILFLVFFAFLHCWLNAFAEML [T8V] was 2.33; that for GVLILFLHFFAFLHCWLNAFAEML [T8H] was 3.09.
For GVLILFLIFFAFLHCWLNAFAEML [T8I] the value was 2.42; for GVLILFLWFFAFLHCWLNAFAEML [T8W], 1.47; for GVLILFLYFFAFLHCWLNAFAEML [T8Y], 3.57.
For GVLILFLAFFAFLHCWLNAFAEML [T8A] the value was 3.88.
For the variant GVLILFLNFFAFLHCWLNAFAEML [T8N], the protein stability index stood at 2.38.
For GVLILFLFFFAFLHCWLNAFAEML [T8F], the protein stability index came out at 3.81.
For GVLILFLDFFAFLHCWLNAFAEML [T8D] the value was 2.71; for GVLILFLQFFAFLHCWLNAFAEML [T8Q], 1.69.
The value for GVLILFLGFFAFLHCWLNAFAEML [T8G] was 2.61; that for GVLILFLSFFAFLHCWLNAFAEML [T8S] was 3.41; that for GVLILFLMFFAFLHCWLNAFAEML [T8M] was 2.6.
For GVLILFLTFFAFLHCWSNAFAEML [L17S] the value was 1.44; for GVLILFLTFFAFLHCWANAFAEML [L17A], 2.74.
Take GVLILFLTFFAFLHCWKNAFAEML [L17K]: the protein stability index was found to be 3.15.
Turning to GVLILFLTFFAFLHCWRNAFAEML [L17R], the protein stability index is 3.44.
Regarding GVLILFLTFFAFLHCWNNAFAEML [L17N], the protein stability index worked out at 2.84.
For GVLILFLTFFAFLHCWINAFAEML [L17I] the value was 2.26; for GVLILFLTFFAFLHCWHNAFAEML [L17H], 1.87; for GVLILFLTFFAFLHCWCNAFAEML [L17C], 2.63.
Take GVLILFLTFFAFLHCWMNAFAEML [L17M]: the protein stability index is 2.95.
Turning to GVLILFLTFFAFLHCWFNAFAEML [L17F], the protein stability index is 2.8.
For GVLILFLTFFAFLHCWTNAFAEML [L17T] the value was 2.88; for GVLILFLTFFAFLHCWPNAFAEML [L17P], 2.22; for GVLILFLTFFAFLHCWENAFAEML [L17E], 3.02.
As to GVLILFLTFFAFLHCWQNAFAEML [L17Q], the protein stability index is 2.24.
The value for GVLILFLTFFAFLHCWDNAFAEML [L17D] was 2.9; that for GVLILFLTFFAFLHCWGNAFAEML [L17G] was 2.06; that for GVLILFLTFFAFLHCWVNAFAEML [L17V] was 3.02.
For GVLILFLTFFAFHHCWLNAFAEML [L13H], the protein stability index was 2.45.
GVLILFLTFFAFAHCWLNAFAEML [L13A]: the protein stability index is 4.05.
Turning to GVLILFLTFFAFTHCWLNAFAEML [L13T], the protein stability index came to 3.62.
Consider GVLILFLTFFAFYHCWLNAFAEML [L13Y], for which the protein stability index is 2.48.
The value for GVLILFLTFFAFGHCWLNAFAEML [L13G] was 2.86.
For GVLILFLTFFAFEHCWLNAFAEML [L13E] the value was 3.16; for GVLILFLTFFAFWHCWLNAFAEML [L13W], 3.93.
On to GVLILFLTFFAFDHCWLNAFAEML [L13D], for which the protein stability index was determined as 3.39.
The value for GVLILFLTFFAFKHCWLNAFAEML [L13K] was 3.57; that for GVLILFLTFFAFSHCWLNAFAEML [L13S] was 3.65; that for GVLILFLTFFAFIHCWLNAFAEML [L13I] was 2.17.
On to GVLILFLTFFAFFHCWLNAFAEML [L13F], for which the protein stability index was determined as 2.74.
With GVLILFLTFFAFPHCWLNAFAEML [L13P], the protein stability index came out at 2.6.
GVLILFLTFFAFVHCWLNAFAEML [L13V]: the protein stability index is 2.57.
For GVLILFLTFFAFRHCWLNAFAEML [L13R] the value was 2.96; for GVLILFLTFFAFCHCWLNAFAEML [L13C], 2.83; for GVLILFLTFFAFNHCWLNAFAEML [L13N], 3.07.
For GVLILFLTFFAFQHCWLNAFAEML [L13Q], the protein stability index came out at 4.15.
For GVLILFLTFFKFLHCWLNAFAEML [A11K] the value was 2.37; for GVLILFLTFFCFLHCWLNAFAEML [A11C], 1.84; for GVLILFLTFFVFLHCWLNAFAEML [A11V], 1.88.
On to GVLILFLTFFPFLHCWLNAFAEML [A11P], for which the protein stability index was 3.29.
With GVLILFLTFFYFLHCWLNAFAEML [A11Y], the protein stability index is 2.09.
The value for GVLILFLTFFHFLHCWLNAFAEML [A11H] was 2.31; that for GVLILFLTFFSFLHCWLNAFAEML [A11S] was 2.69; that for GVLILFLTFFRFLHCWLNAFAEML [A11R] was 3.9.
With GVLILFLTFFDFLHCWLNAFAEML [A11D], the protein stability index is 2.82.
The value for GVLILFLTFFFFLHCWLNAFAEML [A11F] was 2.48.
